Test system: Escherichia coli TOP10
Experiment: shrunken log2 fold change of peptide-encoding DNA abundance (4.5 h post-induction vs induction); higher = less antimicrobial activity (less host growth inhibition)
Settings: time post-induction: 4.5 h; library: site-saturation at positions 5, 18, 19, 20
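Further: peptides expressed intracellularly from a pBAD plasmid library in pooled LB shake-flask culture, induced with 0.3% L-arabinose, DNA abundance read by NGS, three biological replicates, DESeq2 with apeglm shrinkage.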

## RRIRGRPPRLPRPRPRPMNWPRP
  shrunken log2 fold change: 0.179

## RRIRTRPPRLPRPRPRPFINPRP
  shrunken log2 fold change: -0.161

## RRIRDRPPRLPRPRPRPKRLPRP
  shrunken log2 fold change: -0.0451

## RRIRLRPPRLPRPRPRPSSHPRP
  shrunken log2 fold change: -0.196

## RRIRDRPPRLPRPRPRPWCHPRP
  shrunken log2 fold change: -0.407

## RRIRQRPPRLPRPRPRPVNWPRP
  shrunken log2 fold change: 0.472

## RRIRERPPRLPRPRPRPEEWPRP
  shrunken log2 fold change: -0.0919

## RRIRRRPPRLPRPRPRPYEHPRP
  shrunken log2 fold change: -0.0324

## RRIRMRPPRLPRPRPRPKMEPRP
  shrunken log2 fold change: 1.45

## RRIRDRPPRLPRPRPRPCCCPRP
  shrunken log2 fold change: 0.714

## RRIRNRPPRLPRPRPRPNIYPRP
  shrunken log2 fold change: -0.42

## RRIRPRPPRLPRPRPRPSMTPRP
  shrunken log2 fold change: 0.496

## RRIRNRPPRLPRPRPRPMGMPRP
  shrunken log2 fold change: -0.0761

## RRIRTRPPRLPRPRPRPRKPPRP
  shrunken log2 fold change: 0.225

## RRIRPRPPRLPRPRPRPAACPRP
  shrunken log2 fold change: 0.103

## RRIRSRPPRLPRPRPRPMLLPRP
  shrunken log2 fold change: 3.53

## RRIRPRPPRLPRPRPRPVWAPRP
  shrunken log2 fold change: 0.278

## RRIRPRPPRLPRPRPRPLQCPRP
  shrunken log2 fold change: -1.25

## RRIRERPPRLPRPRPRPKRAPRP
  shrunken log2 fold change: -0.145

## RRIRCRPPRLPRPRPRPVVVPRP
  shrunken log2 fold change: -0.203

## RRIRVRPPRLPRPRPRPCFAPRP
  shrunken log2 fold change: 0.116

## RRIRARPPRLPRPRPRPAIFPRP
  shrunken log2 fold change: 0.562

## RRIRLRPPRLPRPRPRPECMPRP
  shrunken log2 fold change: 0.442

## RRIRWRPPRLPRPRPRPRDYPRP
  shrunken log2 fold change: -0.127

## RRIRDRPPRLPRPRPRPLQMPRP
  shrunken log2 fold change: 0.167

## RRIRMRPPRLPRPRPRPTSQPRP
  shrunken log2 fold change: 0.393

## RRIRCRPPRLPRPRPRPYQWPRP
  shrunken log2 fold change: -0.714

## RRIRLRPPRLPRPRPRPARKPRP
  shrunken log2 fold change: 0.0589

## RRIRCRPPRLPRPRPRPKVPPRP
  shrunken log2 fold change: -0.0562

## RRIRNRPPRLPRPRPRPWRRPRP
  shrunken log2 fold change: -0.0717

## RRIRSRPPRLPRPRPRPFRMPRP
  shrunken log2 fold change: -0.646

## RRIRLRPPRLPRPRPRPTPQPRP
  shrunken log2 fold change: 0.594

## RRIRARPPRLPRPRPRPCVSPRP
  shrunken log2 fold change: -0.0271

## RRIRARPPRLPRPRPRPGPWPRP
  shrunken log2 fold change: 0.193

## RRIRFRPPRLPRPRPRPWFIPRP
  shrunken log2 fold change: -0.175

## RRIRCRPPRLPRPRPRPHFCPRP
  shrunken log2 fold change: -0.649

## RRIRDRPPRLPRPRPRPWEAPRP
  shrunken log2 fold change: -0.0176

## RRIRLRPPRLPRPRPRPYKYPRP
  shrunken log2 fold change: 0.0639

## RRIRQRPPRLPRPRPRPFICPRP
  shrunken log2 fold change: -0.0129

## RRIRHRPPRLPRPRPRPCKVPRP
  shrunken log2 fold change: -0.0825

## RRIRPRPPRLPRPRPRPEDAPRP
  shrunken log2 fold change: 0.0442

## RRIRGRPPRLPRPRPRPSGRPRP
  shrunken log2 fold change: 0.522

## RRIRCRPPRLPRPRPRPASEPRP
  shrunken log2 fold change: 0.49

## RRIRGRPPRLPRPRPRPDMIPRP
  shrunken log2 fold change: 0.531

## RRIRCRPPRLPRPRPRPANCPRP
  shrunken log2 fold change: -0.364

## RRIRTRPPRLPRPRPRPRRVPRP
  shrunken log2 fold change: 0.329

## RRIRYRPPRLPRPRPRPTDTPRP
  shrunken log2 fold change: -0.392

## RRIRDRPPRLPRPRPRPDRDPRP
  shrunken log2 fold change: -0.0722

## RRIRWRPPRLPRPRPRPKAAPRP
  shrunken log2 fold change: 0.338

## RRIRLRPPRLPRPRPRPGNHPRP
  shrunken log2 fold change: -0.267

## RRIRSRPPRLPRPRPRPDKCPRP
  shrunken log2 fold change: -0.173

## RRIRMRPPRLPRPRPRPIESPRP
  shrunken log2 fold change: 0.000778

## RRIRPRPPRLPRPRPRPGMDPRP
  shrunken log2 fold change: -0.00631

## RRIRLRPPRLPRPRPRPDFIPRP
  shrunken log2 fold change: -0.295

## RRIRDRPPRLPRPRPRPWKCPRP
  shrunken log2 fold change: 0.118

## RRIRDRPPRLPRPRPRPQWWPRP
  shrunken log2 fold change: 0.274

## RRIRQRPPRLPRPRPRPVLRPRP
  shrunken log2 fold change: -0.027

## RRIRTRPPRLPRPRPRPVPFPRP
  shrunken log2 fold change: 0.0392

## RRIRLRPPRLPRPRPRPAHAPRP
  shrunken log2 fold change: 0.195

## RRIRRRPPRLPRPRPRPVPTPRP
  shrunken log2 fold change: 0.472

## RRIRWRPPRLPRPRPRPPTNPRP
  shrunken log2 fold change: 0.433

## RRIRWRPPRLPRPRPRPNTNPRP
  shrunken log2 fold change: -0.294

## RRIRVRPPRLPRPRPRPEDFPRP
  shrunken log2 fold change: 0.0252

## RRIRIRPPRLPRPRPRPVEEPRP
  shrunken log2 fold change: -0.0729

## RRIRDRPPRLPRPRPRPFFPPRP
  shrunken log2 fold change: 0.0715

## RRIRVRPPRLPRPRPRPLYTPRP
  shrunken log2 fold change: -0.345

## RRIRYRPPRLPRPRPRPKQAPRP
  shrunken log2 fold change: 0.0341

## RRIRIRPPRLPRPRPRPFTYPRP
  shrunken log2 fold change: -0.00992

## RRIRWRPPRLPRPRPRPRTGPRP
  shrunken log2 fold change: 0.235

## RRIRDRPPRLPRPRPRPLNCPRP
  shrunken log2 fold change: -0.0225

## RRIRFRPPRLPRPRPRPSNQPRP
  shrunken log2 fold change: 0.0631

## RRIRARPPRLPRPRPRPIPNPRP
  shrunken log2 fold change: -0.069

## RRIRWRPPRLPRPRPRPHKFPRP
  shrunken log2 fold change: -0.307

## RRIRRRPPRLPRPRPRPAGTPRP
  shrunken log2 fold change: -0.0331

## RRIRPRPPRLPRPRPRPICEPRP
  shrunken log2 fold change: 0.227

## RRIRDRPPRLPRPRPRPWMNPRP
  shrunken log2 fold change: -0.15

## RRIRSRPPRLPRPRPRPCLHPRP
  shrunken log2 fold change: -0.0514

## RRIRTRPPRLPRPRPRPIHPPRP
  shrunken log2 fold change: -0.389

## RRIRQRPPRLPRPRPRPLVQPRP
  shrunken log2 fold change: -0.361

## RRIRERPPRLPRPRPRPHPTPRP
  shrunken log2 fold change: 0.0575

## RRIRARPPRLPRPRPRPFCIPRP
  shrunken log2 fold change: -0.0716

## RRIRARPPRLPRPRPRPAFTPRP
  shrunken log2 fold change: 0.315

## RRIRPRPPRLPRPRPRPGCRPRP
  shrunken log2 fold change: 0.289

## RRIRPRPPRLPRPRPRPVTRPRP
  shrunken log2 fold change: -0.0129

## RRIRRRPPRLPRPRPRPKEQPRP
  shrunken log2 fold change: 0.118

## RRIRDRPPRLPRPRPRPYAMPRP
  shrunken log2 fold change: 0.168

## RRIRFRPPRLPRPRPRPRLQPRP
  shrunken log2 fold change: 0.221

## RRIRNRPPRLPRPRPRPWYVPRP
  shrunken log2 fold change: -0.097

## RRIRWRPPRLPRPRPRPMPYPRP
  shrunken log2 fold change: -0.0164

## RRIRDRPPRLPRPRPRPQVPPRP
  shrunken log2 fold change: -0.0122

## RRIRYRPPRLPRPRPRPHGWPRP
  shrunken log2 fold change: -0.0273

## RRIRFRPPRLPRPRPRPSFSPRP
  shrunken log2 fold change: -0.702

## RRIRNRPPRLPRPRPRPRVTPRP
  shrunken log2 fold change: 0.0249

## RRIRKRPPRLPRPRPRPARRPRP
  shrunken log2 fold change: 0.888

## RRIRVRPPRLPRPRPRPRHMPRP
  shrunken log2 fold change: 0.152

## RRIRKRPPRLPRPRPRPANAPRP
  shrunken log2 fold change: 0.426

## RRIRHRPPRLPRPRPRPQHQPRP
  shrunken log2 fold change: -0.192

## RRIRKRPPRLPRPRPRPVQHPRP
  shrunken log2 fold change: 0.134

## RRIRHRPPRLPRPRPRPTFCPRP
  shrunken log2 fold change: -0.186

## RRIRGRPPRLPRPRPRPIERPRP
  shrunken log2 fold change: -0.00587

## RRIRDRPPRLPRPRPRPDSRPRP
  shrunken log2 fold change: -0.00898

## RRIRTRPPRLPRPRPRPRQMPRP
  shrunken log2 fold change: 0.641

## RRIRMRPPRLPRPRPRPTRPPRP
  shrunken log2 fold change: 1.32

## RRIRCRPPRLPRPRPRPLQIPRP
  shrunken log2 fold change: -0.213

## RRIRQRPPRLPRPRPRPIFEPRP
  shrunken log2 fold change: -0.224

## RRIRWRPPRLPRPRPRPTGKPRP
  shrunken log2 fold change: 0.294

## RRIRGRPPRLPRPRPRPNCPPRP
  shrunken log2 fold change: -0.161

## RRIRDRPPRLPRPRPRPGQVPRP
  shrunken log2 fold change: 0.203

## RRIRRRPPRLPRPRPRPKWTPRP
  shrunken log2 fold change: -0.149

## RRIRPRPPRLPRPRPRPSLHPRP
  shrunken log2 fold change: -0.21

## RRIRFRPPRLPRPRPRPKSYPRP
  shrunken log2 fold change: -0.201

## RRIRNRPPRLPRPRPRPQDLPRP
  shrunken log2 fold change: -0.11

## RRIRLRPPRLPRPRPRPYGQPRP
  shrunken log2 fold change: -0.0159

## RRIRQRPPRLPRPRPRPMMHPRP
  shrunken log2 fold change: -0.252

## RRIRNRPPRLPRPRPRPCVFPRP
  shrunken log2 fold change: -0.162

## RRIRSRPPRLPRPRPRPAYEPRP
  shrunken log2 fold change: 0.00308

## RRIRNRPPRLPRPRPRPYLCPRP
  shrunken log2 fold change: -0.0174

## RRIRYRPPRLPRPRPRPLRLPRP
  shrunken log2 fold change: 0.077

## RRIRYRPPRLPRPRPRPQWLPRP
  shrunken log2 fold change: -0.0323

## RRIRLRPPRLPRPRPRPYYGPRP
  shrunken log2 fold change: -0.838

## RRIRGRPPRLPRPRPRPYEKPRP
  shrunken log2 fold change: -0.0149

## RRIRKRPPRLPRPRPRPCPIPRP
  shrunken log2 fold change: -0.212

## RRIRDRPPRLPRPRPRPWRLPRP
  shrunken log2 fold change: -0.264

## RRIRGRPPRLPRPRPRPVRMPRP
  shrunken log2 fold change: 0.963

## RRIRCRPPRLPRPRPRPLPQPRP
  shrunken log2 fold change: 0.334

## RRIRCRPPRLPRPRPRPRGQPRP
  shrunken log2 fold change: -0.0954

## RRIRARPPRLPRPRPRPAECPRP
  shrunken log2 fold change: 0.041

## RRIRDRPPRLPRPRPRPNERPRP
  shrunken log2 fold change: 0.141

## RRIRWRPPRLPRPRPRPNKQPRP
  shrunken log2 fold change: 0.103

## RRIRERPPRLPRPRPRPQIFPRP
  shrunken log2 fold change: -0.0392

## RRIRIRPPRLPRPRPRPYRVPRP
  shrunken log2 fold change: -0.0849

## RRIRRRPPRLPRPRPRPCWAPRP
  shrunken log2 fold change: 0.153

## RRIRVRPPRLPRPRPRPVEYPRP
  shrunken log2 fold change: -1.63

## RRIRARPPRLPRPRPRPHSSPRP
  shrunken log2 fold change: -0.137

## RRIRWRPPRLPRPRPRPTQPPRP
  shrunken log2 fold change: 0.398

## RRIRQRPPRLPRPRPRPWEKPRP
  shrunken log2 fold change: -0.0123

## RRIRERPPRLPRPRPRPVCQPRP
  shrunken log2 fold change: 0.121

## RRIRHRPPRLPRPRPRPRLIPRP
  shrunken log2 fold change: -0.0786

## RRIRGRPPRLPRPRPRPQTMPRP
  shrunken log2 fold change: 0.672

## RRIRMRPPRLPRPRPRPVDFPRP
  shrunken log2 fold change: 0.159

## RRIRERPPRLPRPRPRPYECPRP
  shrunken log2 fold change: -0.0425

## RRIRGRPPRLPRPRPRPIQPPRP
  shrunken log2 fold change: 0.46

## RRIRLRPPRLPRPRPRPCPLPRP
  shrunken log2 fold change: -0.333

## RRIRHRPPRLPRPRPRPGVMPRP
  shrunken log2 fold change: -0.0309

## RRIRIRPPRLPRPRPRPRHYPRP
  shrunken log2 fold change: -0.177

## RRIRYRPPRLPRPRPRPSRPPRP
  shrunken log2 fold change: -0.084

## RRIRRRPPRLPRPRPRPCMGPRP
  shrunken log2 fold change: -0.1

## RRIRGRPPRLPRPRPRPDPTPRP
  shrunken log2 fold change: 1.06

## RRIRCRPPRLPRPRPRPRHYPRP
  shrunken log2 fold change: -0.393

## RRIRSRPPRLPRPRPRPMMCPRP
  shrunken log2 fold change: 0.0105
